Test results as given in article doi:10.1101/2023.06.15.545071, “POLARIS is a copper-binding peptide required for ethylene signalling control in Arabidopsis” (bioRxiv, 2023).

Molecular target: T1, PLS linked to a C-terminal GFP (p35S::PLS:GFP) (Arabidopsis thaliana, UniProt Q8LLV8 1-36)
T1 construct: POLARIS (PLS) peptide, Arabidopsis thaliana, 36 amino acids; 'the 105-nucleotide PLS gene (without the stop codon)' in pEarlyGate103; source: Nicotiana benthamiana leaves, Agrobacterium infiltration, transient expression, in protein extract; not shown: GFP, C-terminal, kept
Assay: co-IP; PLS:GFP and ETR1:HA co-expressed in N. benthamiana leaves, 3 d; anti-GFP beads or anti-HA beads, western blot; extract with 0.5 μM copper sulphate or 2 mM EDTA
Settings: partners not purified

T1 sequence (Q8LLV8 whole entry): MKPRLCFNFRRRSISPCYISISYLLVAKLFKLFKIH

fold more co-precipitated with copper ions than with 2 mM EDTA: ~3 fold
B1: ETR1 with a C-terminal HA tag (p35S::ETR1:HA) (receptor, Arabidopsis, UniProt P49333 1-738, looked up)
chain: MEVCNCIEPQWPADELLMKYQYISDFFIAIAYFSIPLELIYFVKKSAVFPYRWVLVQFGAFIVLCGATHLINLWTFTTHSRTVALVMTTAKVLTAVVSCATALMLVHIIPDLLSVKTRELFLKNKAAELDREMGLIRTQEETGRHVRMLTHEIRSTLDRHTILKTTLVELGRTLALEECALWMPTRTGLELQLSYTLRHQHPVEYTVPIQLPVINQVFGTSRAVKISPNSPVARLRPVSGKYMLGEVVAVRVPLLHLSNFQINDWPELSTKRYALMVLMLPSDSARQWHVHELELVEVVADQVAVALSHAAILEESMRARDLLMEQNVALDLARREAETAIRARNDFLAVMNHEMRTPMHAIIALSSLLQETELTPEQRLMVETILKSSNLLATLMNDVLDLSRLEDGSLQLELGTFNLHTLFREVLNLIKPIAVVKKLPITLNLAPDLPEFVVGDEKRLMQIILNIVGNAVKFSKQGSISVTALVTKSDTRAADFFVVPTGSHFYLRVKVKDSGAGINPQDIPKIFTKFAQTQSLATRSSGGSGLGLAISKRFVNLMEGNIWIESDGLGKGCTAIFDVKLGISERSNESKQSGIPKVPAIPRHSNFTGLKVLVMDENGVSRMVTKGLLVHLGCEVTTVSSNEECLRVVSHEHKVVFMDVCMPGVENYQIALRIHEKFTKQRHQRPLLVALSGNTDKSTKEKCMSFGLDGVLLKPVSLDNIRDVLSDLLEPRVLYEGM
notes: 'the ETR1 cDNA' in pEarlyGate301; source: Nicotiana benthamiana leaves, Agrobacterium infiltration, transient expression, in protein extract; not shown: HA, C-terminal, kept
